Results published in a protein production outcome set (Wang et al. 2014).

Assay: label from the status in PepcDB records

Sequence	protein production
MASDTPGFYMDKLNKYRQMHGVAITYKELSTSGPPHDRRFTFQVLIDEKEFPEAKGRSKQEARNAAAKLAVDILDNENKVDCHT	not failed
MAYNSNSNNNNNNIVVVFDFDKTIIDVDSDNWVIDELGFTDLFNQLLPTMPWNTLMDRMMKELHDQGKTIEEIKQVLRTIPIHPRVVPAIKSAHDLGCELRIVSDANMFFIETIVEHLGISELFSEINSNPGYVDERGTLKISPYHDFTKSPHSCSCGTCPPNMCKGLIIERIQQSLAKEGKKKMIYLGDGAGDYCPSLKLNTEDYVMPRKNFPVWDLISQNPMLIKAAIREWTDGQSMEMILIGTIEEIRLEEEKEKMLTSAENNCKMQTISIGINNVHHEPILPRALRVSQSS	failed
MSQSSKARLSTDPTVFEAVLNNHTPMMQQYLRIKAQHPDMLMFYRMGDFYELFFDDAEKAAKLLDITLTRRGTSAGEPIKMAGVPYHAAEQYLAKLVKLGESVVICEQVGDPATSKGPVERQVTRIITPGTLTDAALLEDKRDSALLALLVHESTLGLAWLNLAAGQFSVMETSVNNLTAELERLKPAEILLPESLNLAGINDRVIQEKLCVKHLPAWQFDTAAAVRNLSRQFGTHDLSGFGCEDLDVSLGAASALLDYTRLTQGASIGHIKGLRVEREDTYLRMDATTRRNLEISETIRGDAAPTLLSLLDTCSTNMGSRLLCHWLHHPLRDRGLIQNRLNGVSFLMGEAGSGPCLSVRDCLKRVTDIERITARIALKSARPRDLSGLRDSLKRLPAVNNAVAGTATTSSGGSDVSAHVAALIHSMAPDNALVALLEKSLKEEPEVMLRTGGVIADGYDAELDELRAIHNNCDEFLLQLETREKARTGIANLKVEYNRLHGFYIEVTHAHTEKIPDDYRRRQTLKNAERYITPELKAFEEKALSAQSRALEREKLLYGELLDMLSQYIDHLQQVARSVAELDVLATFAERALALDYSLPLFTSDSVIEIQAGRHPVVEKQVDSFIANDVQLGARTGGRRQMLVITGPNMGGKSTYMRQVALIALLAHCGSFVPARSALIGPLDQLFTRIGASDDLAGGRSTFMMEMTEAANILHNATAQSLVLMDEVGRGTSTFDGLALAFAIARYLLEKNRSYTLFATHYFELTRLAEEFAQVANVHLRAVEHKHHIVFLHAVNEGPASQSYGLQVAALAGVPDPVIRTARRYLLKLEQEALSNQPQGDLFSRDDLFWKQDRMPEGSVDKNDSAPEHPVLALLRTIVPDDLSPKQALEQLYGLKKAAEKE	failed
MKNYTLISPCFFGMEKMLAREITNLGYEIIKTEDGRITYKTDEFGIAKSNMWLRCAERVHLKIAEFEAKSFDELFENTKRINWSRYIPYGAQFPISKASSIKSKLYSTPDVQAIVKKAIVESLKKSYLEDGLLKEDKEKYPIFVFIHKDKVTISIDTTGDALHKRGYREKANKAPIRETLAAGLIYLTPWKAGRVLVDPMCGSGTILIEAAMIGINMAPGLNREFISEKWRTLDKKIWWDVRKDAFNKIDNESKFKIYGYDIDEESIDIARENAEIAGVDEYIEFNVGDATQFKSEDEFGFIITNPPYGERLEDKDSVKQLYKELGYAFRKLKNWSYYLITSYEDFEYEFGQKADKKRKLYNGMLKTNFFQYPGPKPPRNNK	not failed
MKDETNIKTIALAIVLIAGYNVYTSQQDVKMFSLTLANIEALAMDETTQCDNANGYRRILEGDERIYDCCYLEKVGKLEHHHHHH	failed
MTTQMPIASPRTEFYERAFGGFHDQAVAEVRKETYGEDLGQNDWSTVDEMRQFSQWLELSPQSHLLDVCSGSGGPALFLARNSGCRVTGVDLHPDALQTGRQLAQALELHDRSQFVECDVRQRMPFPDGTFDALWCIDSVIHIPDRLALLREWCRLLKPGGRFLYTDPTLVTGMVSKEEILLRGTPGYFLYTPIGLNERLIEQAGLRLDMQADLTHSITELSERWHAAREKRCAVLTATEGEEAFARMQSFLTATHRVSVEGRLSRWVFVGVRP	failed
MTDQAVDTGGSQLPGNEQRPAAAPAPTVSQFLGRTRELKELRADIERAGLDTLSGRKAPRARVLLIAGRPGSGRTALAEELVRQVADRYRDGVLRARLTEPDGTPVPTERTARELLAALEVATPPGAAEDDLTEALREALADRRTLLLLDDVAAAEQVDALLPGTPDCLVVAVSEGPLTGIADVRPCTLGGLDTKSALELLGRLTGAVRITVDPRAAEGLVEECAGQPLALVLAGSWLAARPQAAVADLAKQLRSEGDEGPPTARLFRLAYAGLPATAQRILRLLSLAPAGLVDPHTASALAGCSVSAAHTTLDDFAALGLVRLLESPLPQYEVPGSLLPLLRALAESRERPAELQLARARMLERTVRLLQSCRAITETDSIEAREKLLGMPRTLRFPNPRAAADWLRVRQPALLAAARSAVADGELDTLARRLMSQLVRAMVAHFGTQASAPELYGIHRLVLDVAERRNLPREQAAALLNLADLDTRTGRTTEALARYRAALDAGREANDPYATGRAMESVGGAHQELGDYDRAADWYGRALAQRLARDERVDAARLYGRIATAHTYAGRYGEALRNWRSAVAGHRKNGDVAAQARALSELARVQEYAGRPEESLRTCQEAVEWARRADDVRLQAALQLRLADTLEHLGDPAAAKLHRGAAERMLGEELLESDSGAEQAPNACEIRSASSKD	failed
MSNSMLDKNKAILTGGGALLLGLIVLFYLAYRPKAEVLQGFLEAREYSVSSKVPGRIEKVFVKKGDHIKKGDLVFSISSPELEAKLAQAEAGHKAAKALSDEVKRGSRDETINSARDVWQAAKSQATLAKETYKRVQDLYDNGVASLQKRDEAYAAYESTKYNESAAYQKYKMALGGASSESKIAAKAKESAALGQVNEVESYLKDVKATAPIDGEVSNVLLSGGELSPKGFPVVLMIDLKDSWLKISVPEKYLNEFKVGKEFEGYIPALKKSTKFRVKYLSVMGDFATWKATNNSNTYDMKSYEVEAIPLEELENFRVGMSVLVTIKP	failed
MVWPFKSKFRKQIARIEITGAIASGTRKRVLEALKTVEERKFPALLLRIDSPGGTVGDSQEIYSALKRLREKIKIVASFGNISASGGVYIGMGAEHIMANPGTITGSIGVILRGNNLERLLDKIGVSFKVIKSGPYKDILSFDRELTEPEQDILQELIDTSYQQFVQTVAEGRSLAVDKVKSFADGRIFTGQQALELGVVDRLGTEEEARRWTAELVGLDPEKTPCYTLEERKPLLSRVLPGSRKGYSRLGASIDWLEFEMSTSGLPLWLYRP	failed
MYYVIFAQDIPNTLEKRLAVREQHLARLKQLQAENRLLTAGPNPAIDDENPSEAGFTGSTVIAQFENLQAAKDWAAQDPYVEAGVYADVIVKPFKKVF	not failed
MPPQRRRRPEPEAPAPGRRGRRPEKKKSRGKRVLLWTGGSMAFVVLVAGVGGYVYLKHLEGNVSTTDVGTAGSSSFKKDEAFNILIIGTDKRTGEGNEGYGDKGSAGHADTNILLHVAEDRSNATALSIPRDLIVDIPDCETTQEDGTKKVIPGTSGVRFNQSLGDFGRDAGCTMRTVAETTGIKPDHFMMADFNAVKTLTTAVDGVDVCVEHAVDDPKSHLKLPAGESKVEGEQALAFVRTRHAFGNEGDLDRIKVQQQFLGSLMRKMASGDTLTSPTKLVKLAEAATKALTVDSAIGKVGTLKDIALELKKVPTKNITFTTVPVIDNPAEKVKATVVVNEAKGPQVFDMIKNDISFTEVEQQKKKEKAAVAARLKGEKSEPGEVRVRVMNGGAPAGSAQQELAYLQTQAGVSKSENAGNAPADIAKTTLEYAPDQADQARALAEILGLTGAAMKPGESVTNSQGLPTMTLTLGKDFKGAGVKLDGSVKKPDLDTESTADQKLCAS	failed
MLKIFSTQLSGYFSRVSQKEEMNIEDSARLLAQALVGEGFIYLHGTNEMEGVVAEALFGAEPMKQAKRLFENGKEVEVTSADRVLLISRFSTDEEVVAIAKKLQADGHSIVGISAIQEGNESLEQYTDVHIDTKLLKGLIPDDEGNRYGFPSLMIALFAYHGIKFTIDEMLNEY	not failed
MVNQPLVSIIIPAYRAENTIAFTVRSVLAQTYDHWQVAIGVDDQVDYLQLLAEQGINDPRLKQVFTGGIGSGEAIARNKAVSICDGDILANLDADDAFASDRLEKLVPLAEKYGVAIDNTGVYNSELVLYKQPFPQRQALNFATAADILSPRIPFFPVFQRQLLGDGWTKVPFAADVLFNLELLSRTEKVAIHPEPLYRYYKRDNSITQSANAFETAEKAYLTILSLLDEGALTLTDAIRQAARQEFSENLALNKVFRRYMEEGRCQNLEQFLDMTNNGQKIEFVSNLNLEHHHHHH	not failed
MLFYLYVTRCKQLLNYNNMETDNGDKEKSEEDDLCALKDALEAVILFQGLSEYQKKLMFPNLKNLGAETIKELIDEWKELNVEELNLNIKKQTFFTKFANASWSLMLLIQQENNFCFWMFYVIPTSLFFVCCVLLHLLNDGS	failed
